Results on one substance are retold here after paper PMC9810080.

In assay [1] the target is CaM1 peptide, CNGB1 residues 565–589 (UniProt Q14028). Nature of the assay: ITC.
The target of assay [2] is CaM2 peptide, CNGB1 residues 1120–1147 (UniProt Q14028). Nature of the assay: ITC. On the technique in general: ITC needs no label: the signal is the heat of the interaction.

One may read the stoichiometry N as a count of units in the complex or per binding partner.

CaM1 peptide, CNGB1 residues 565–589, sequence (Q14028 565-589): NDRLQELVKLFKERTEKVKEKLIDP
CaM2 peptide, CNGB1 residues 1120–1147, sequence (Q14028 1120-1147): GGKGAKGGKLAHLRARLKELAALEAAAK

With “Calmodulin (CaM), full-length (from UniProt P0DP23 1-149) (natural protein)”, in assay [1], the Kd of the endothermic site (two-site fit) turned out to be 240 µM, the apparent Kd of the exothermic site (two-site fit) was determined as 1 µM, the dH1 (site 1 of the two-site fit) is -7.5 kcal/mol and the stoichiometry N came to 2 CaM1 per CaM. Further, in assay [2], the dH turned out to be 2.1 kcal/mol, the dH1 (site 1 of the two-site fit) is -4.5 kcal/mol and the stoichiometry N turned out to be 2 CaM2 per CaM.
